Measurements from US20220298218A1 (ANTAG THERAPEUTICS, published 2022).
Where no end group is shown, it is not given here. The star is where a group is joined. C16 diacid = O=C(O)CCCCCCCCCCCCCCC(=O)*

B1: AT618 (peptide)
peptide: EGTFISDYSIALDKIK(C16 diacid)QQDFVNWLLAQKPSSGAPPPS-OH
modifications: N-terminus assumed
SMILES: CC[C@H](C)[C@H](NC(=O)[C@H](CO)NC(=O)[C@H](Cc1ccc(O)cc1)NC(=O)[C@H](CC(=O)O)NC(=O)[C@H](CO)NC(=O)[C@@H](NC(=O)[C@H](Cc1ccccc1)NC(=O)[C@@H](NC(=O)CNC(=O)[C@@H](N)CCC(=O)O)[C@@H](C)O)[C@@H](C)CC)C(=O)N[C@@H](C)C(=O)N[C@@H](CC(C)C)C(=O)N[C@@H](CC(=O)O)C(=O)N[C@@H](CCCCN)C(=O)N[C@H](C(=O)N[C@@H](CCCCNC(=O)CCCCCCCCCCCCCCC(=O)O)C(=O)N[C@@H](CCC(N)=O)C(=O)N[C@@H](CCC(N)=O)C(=O)N[C@@H](CC(=O)O)C(=O)N[C@@H](Cc1ccccc1)C(=O)N[C@H](C(=O)N[C@@H](CC(N)=O)C(=O)N[C@@H](Cc1c[nH]c2ccccc12)C(=O)N[C@@H](CC(C)C)C(=O)N[C@@H](CC(C)C)C(=O)N[C@@H](C)C(=O)N[C@@H](CCC(N)=O)C(=O)N[C@@H](CCCCN)C(=O)N1CCC[C@H]1C(=O)N[C@@H](CO)C(=O)N[C@@H](CO)C(=O)NCC(=O)N[C@@H](C)C(=O)N1CCC[C@H]1C(=O)N1CCC[C@H]1C(=O)N1CCC[C@H]1C(=O)N[C@@H](CO)C(=O)O)C(C)C)[C@@H](C)CC
B2: AT617 (peptide)
peptide: EGTFISDYSIAMDKIK(C16 diacid)QQDFVEWLLAQKPSSGAPPPS-OH
modifications: N-terminus assumed
SMILES: CC[C@H](C)[C@H](NC(=O)[C@H](CO)NC(=O)[C@H](Cc1ccc(O)cc1)NC(=O)[C@H](CC(=O)O)NC(=O)[C@H](CO)NC(=O)[C@@H](NC(=O)[C@H](Cc1ccccc1)NC(=O)[C@@H](NC(=O)CNC(=O)[C@@H](N)CCC(=O)O)[C@@H](C)O)[C@@H](C)CC)C(=O)N[C@@H](C)C(=O)N[C@@H](CCSC)C(=O)N[C@@H](CC(=O)O)C(=O)N[C@@H](CCCCN)C(=O)N[C@H](C(=O)N[C@@H](CCCCNC(=O)CCCCCCCCCCCCCCC(=O)O)C(=O)N[C@@H](CCC(N)=O)C(=O)N[C@@H](CCC(N)=O)C(=O)N[C@@H](CC(=O)O)C(=O)N[C@@H](Cc1ccccc1)C(=O)N[C@H](C(=O)N[C@@H](CCC(=O)O)C(=O)N[C@@H](Cc1c[nH]c2ccccc12)C(=O)N[C@@H](CC(C)C)C(=O)N[C@@H](CC(C)C)C(=O)N[C@@H](C)C(=O)N[C@@H](CCC(N)=O)C(=O)N[C@@H](CCCCN)C(=O)N1CCC[C@H]1C(=O)N[C@@H](CO)C(=O)N[C@@H](CO)C(=O)NCC(=O)N[C@@H](C)C(=O)N1CCC[C@H]1C(=O)N1CCC[C@H]1C(=O)N1CCC[C@H]1C(=O)N[C@@H](CO)C(=O)O)C(C)C)[C@@H](C)CC

Molecular target: T1, human GIP receptor (human, UniProt P48546 22-466)
T1 sequence (looked up): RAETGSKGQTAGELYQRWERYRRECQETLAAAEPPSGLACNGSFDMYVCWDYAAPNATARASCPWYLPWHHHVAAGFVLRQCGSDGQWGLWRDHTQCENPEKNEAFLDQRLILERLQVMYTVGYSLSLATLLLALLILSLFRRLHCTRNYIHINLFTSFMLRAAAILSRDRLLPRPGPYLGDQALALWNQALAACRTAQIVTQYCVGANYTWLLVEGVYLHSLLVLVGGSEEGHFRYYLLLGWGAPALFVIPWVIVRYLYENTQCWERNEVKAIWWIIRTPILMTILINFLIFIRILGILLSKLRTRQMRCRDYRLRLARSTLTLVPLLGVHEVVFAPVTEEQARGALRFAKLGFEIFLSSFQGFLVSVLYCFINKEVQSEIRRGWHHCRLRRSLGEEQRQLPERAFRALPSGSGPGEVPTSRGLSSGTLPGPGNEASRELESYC
Assay: cell-based or functional assay

Binder | cAMP agonism % Emax | cAMP antagonism | cAMP antagonism % inhib | cAMP antagonism pIC50
B1 | 0% | 3.98 nM | 82% | 8.4
B2 | 0% | 0.794 nM | 91% | 9.1
EGTFISDYSIALDKIKQQDFVNWLLAQKPSSGAPPPS (Nle at 14; K18: C16-diacid; C-term COOH) [AT619] | 0% | 2.19 nM | 87% | 8.7
